Results reported in PMC10485164, “Sequence-specific targeting of Caenorhabditis elegans C-Ala to the D-loop of tRNAAla”.
Residue numbers refer to the chain shown, from its start.

Key:
Ce-C-Alac K938A = target: T1, Ce-C-Alac K938A (Caenorhabditis elegans, UniProt O01541 757-968, K938A); experiment: EMSA; 5 mM Mg2+; EMSA: 20 mM Hepes pH 7.5, 20 mM KCl, 5 mM MgCl2, 2 mM DTT, 10 min on ice, 0.1 uM ligand; 5% native PAGE in 0.5x TBE at 4 C; protein 0.125-32 uM; conditions: protein: recombinant; tags: His6 (C-terminal, pET21b); label: 5'-32P; tRNA cloverleaf
T1 sequence: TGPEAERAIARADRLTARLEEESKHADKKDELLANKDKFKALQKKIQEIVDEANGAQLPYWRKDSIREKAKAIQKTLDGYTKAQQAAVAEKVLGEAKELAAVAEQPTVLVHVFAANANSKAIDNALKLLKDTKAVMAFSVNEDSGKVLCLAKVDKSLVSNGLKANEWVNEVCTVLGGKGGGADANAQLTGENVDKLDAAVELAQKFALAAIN

Ce-C-Alac K934A = target: T2, Ce-C-Alac K934A (Caenorhabditis elegans, UniProt O01541 757-968, K934A); experiment: as above; conditions: protein: recombinant; tags: His6 (C-terminal, pET21b); label: 5'-32P; tRNA cloverleaf
T2 sequence: T1 sequence with K178A, A182K

B1: CetRNAnAla (structured_RNA)
RNA: GGGGGUAUAGCUCAGUGGUAGAGCGCUCCCUUAGCAUGGGAGAGGGCUGGGGUUCAAUUCCCCAUACCUCCACCA
What does the source list for B1?
binding signal (Ce-C-Alac K938A): 3 fold lower affinity than WT Ce-C-Alac; binding signal (Ce-C-Alac K934A): 11 fold lower affinity than WT Ce-C-Alac
